Laboratory results reported in patent publication US12295987B2, “Method of using a GIP/GLP1 co-agonist for diabetes” (Eli Lilly and Company, priority 2018, dated 2025).

Target: T1, human gastric inhibitory peptide receptor (hGIPR) (Homo sapiens, UniProt P48546)
T1 construct: expressed in transfected cells; host or cells: HEK293
T1 sequence (P48546 22-466): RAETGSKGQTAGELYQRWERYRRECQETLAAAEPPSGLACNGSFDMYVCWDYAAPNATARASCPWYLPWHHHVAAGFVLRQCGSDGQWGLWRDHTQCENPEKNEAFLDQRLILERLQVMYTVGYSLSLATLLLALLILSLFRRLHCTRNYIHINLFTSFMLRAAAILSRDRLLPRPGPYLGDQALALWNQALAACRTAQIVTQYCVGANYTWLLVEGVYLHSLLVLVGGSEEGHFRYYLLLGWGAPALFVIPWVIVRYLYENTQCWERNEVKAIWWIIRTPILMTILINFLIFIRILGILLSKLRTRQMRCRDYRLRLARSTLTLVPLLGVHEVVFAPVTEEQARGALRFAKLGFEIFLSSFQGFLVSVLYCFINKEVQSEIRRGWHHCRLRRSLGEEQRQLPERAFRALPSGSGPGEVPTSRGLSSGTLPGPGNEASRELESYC
Experiment: cAMP pharmacological functional assay in presence of 0.1% casein, hGIPR
Assay type: cell-based
Conditions: ratio of hGIPR to hGLP1R cAMP EC50 ratios

Substance | [hGIPR/hGLP1R] EC50 Ratio
Y-Aib-EGT-αMeF-TSDYSI-αMeL-LDKK((2-[2-(2-Amino-ethoxy)-ethoxy]-acetyl)2-(γGlu)-CO—(CH2)18—CO2H)AQ-Aib-AFIEYLIEGGPSSGAPPPS-NH2 (YXEGTXTSDYSIXLDKKAQXAFIEYLIEGGPSSGAPPPS; Aib, αMeF, αMeL, lipidated Lys, C-terminal amide; (2)..(2) Xaa at position 2 is Aib; (6)..(6) Xaa at position 6 is alpha-methyl-Phe; (13)..(13) Xaa at position 13 is alpha-methyl-Leu; MOD_RES (17)..(17) Lys at position 17 is chemically modified by conjugation of the epsilon-amino group of the Lys side chain with (2-[2-(2-amino-ethoxy)-ethoxy]-acetyl)2-(gamma-Glu)-CO-(CH2)18- CO2H; (20)..(20) Xaa at position 20 is Aib; MOD_RES (39)..(39) Ser at po) [Peptide 69] | 3.21
Y-Aib-EGT-αMeF-TSDYSI-αMeL-LDKK((2-[2-(2-Amino-ethoxy)-ethoxy]-acetyl)2-(γGlu)-CO—(CH2)18—CO2H)AQ-Aib-Aad-FIEYLIEGGPSSGAPPPS-NH2 (YXEGTXTSDYSIXLDKKAQXXFIEYLIEGGPSSGAPPPS; Aib, Aad, αMeF, αMeL; acylated lysine C20 diacid; amide; (2)..(2) Xaa at position 2 is Aib; (6)..(6) Xaa at position 6 is alpha-methyl-Phe; (13)..(13) Xaa at position 13 is alpha-methyl-Leu; MOD_RES (17)..(17) Lys at position 17 is chemically modified by conjugation of the epsilon-amino group of the Lys side chain with (2-[2-(2-amino-ethoxy)-ethoxy]-acetyl)2-(gamma-Glu)-CO-(CH2)18- CO2H; (20)..(20) Xaa at position 20 is Aib; (21)..(21) Xaa at position 2) [Peptide 137] | 3.58
Y-Aib-EGT-αMeF-TSDYSI-αMeL-LDKK((2-[2-(2-Amino-ethoxy)-ethoxy]-acetyl)2-(γGlu)-CO—(CH2)18—CO2H)AQ-Aib-Aib-FIEYLIEGGPSSGAPPPS-NH2 (YXEGTXTSDYSIXLDKKAQXXFIEYLIEGGPSSGAPPPS; Aib, αMeF, αMeL; acylated lysine C20 diacid; amide; (2)..(2) Xaa at position 2 is Aib; (6)..(6) Xaa at position 6 is alpha-methyl-Phe; (13)..(13) Xaa at position 13 is alpha-methyl-Leu; MOD_RES (17)..(17) Lys at position 17 is chemically modified by conjugation of the epsilon-amino group of the Lys side chain with (2-[2-(2-amino-ethoxy)-ethoxy]-acetyl)2-(gamma-Glu)-CO-(CH2)18- CO2H; (20)..(20) Xaa at position 20 is Aib; (21)..(21) Xaa at position 2) [Peptide 143] | 3.89
Y-Aib-EGT-αMeF-TSDYSI-αMeL-LDKK((2-[2-(2-Amino-ethoxy)-ethoxy]-acetyl)2-(γGlu)-CO—(CH2)18—CO2H)AQ-Aib-DFIEYLIEGGPSSGAPPPS-NH2 (YXEGTXTSDYSIXLDKKAQXDFIEYLIEGGPSSGAPPPS; Aib, αMeF, αMeL; acylated lysine C20 diacid; amide; (2)..(2) Xaa at position 2 is Aib; (6)..(6) Xaa at position 6 is alpha-methyl-Phe; (13)..(13) Xaa at position 13 is alpha-methyl-Leu; MOD_RES (17)..(17) Lys at position 17 is chemically modified by conjugation of the epsilon-amino group of the Lys side chain with (2-[2-(2-amino-ethoxy)-ethoxy]-acetyl)2-(gamma-Glu)-CO-(CH2)18- CO2H; (20)..(20) Xaa at position 20 is Aib; MOD_RES (39)..(39) Ser at po) [Peptide 140] | 3.24
Y-Aib-EGT-αMeF-TSDYSI-αMeL-LDKK((2-[2-(2-Amino-ethoxy)-ethoxy]-acetyl)2-(γGlu)-CO—(CH2)18—CO2H)AQ-Aib-EFI-(D-Glu)-YLIEGGPSSG-NH2 (YXEGTXTSDYSIXLDKKAQXEFIXYLIEGGPSSG; Aib, αMe, D-Glu, C20 diacid lipidation, C-amide; (2)..(2) Xaa at position 2 is Aib; (6)..(6) Xaa at position 6 is alpha-methyl-Phe; (13)..(13) Xaa at position 13 is alpha-methyl-Leu; MOD_RES (17)..(17) Lys at position 17 is chemically modified by conjugation of the epsilon-amino group of the Lys side chain with (2-[2-(2-amino-ethoxy)-ethoxy]-acetyl)2-(gamma-Glu)-CO-(CH2)18- CO2H; (20)..(20) Xaa at position 20 is Aib; (24)..(24) Xaa at position 2) [Peptide 228] | 3.51
Y-Aib-EGT-αMeF-TSDYSI-αMeL-LDKK((2-[2-(2-Amino-ethoxy)-ethoxy]-acetyl)2-(γGlu)-CO—(CH2)18—CO2H)AQ-Aib-EFIEYLIEGGPSSG-NH2 (YXEGTXTSDYSIXLDKKAQXEFIEYLIEGGPSSG; Aib, αMe residues, C20 diacid lipidation, C-amide; (2)..(2) Xaa at position 2 is Aib; (6)..(6) Xaa at position 6 is alpha-methyl-Phe; (13)..(13) Xaa at position 13 is alpha-methyl-Leu; MOD_RES (17)..(17) Lys at position 17 is chemically modified by conjugation of the epsilon-amino group of the Lys side chain with (2-[2-(2-amino-ethoxy)-ethoxy]-acetyl)2-(gamma-Glu)-CO-(CH2)18- CO2H; (20)..(20) Xaa at position 20 is Aib; MOD_RES (34)..(34) Gly at po) [Peptide 123] | 2.56
Y-Aib-EGT-αMeF-TSDYSI-αMeL-LDKK((2-[2-(2-Amino-ethoxy)-ethoxy]-acetyl)2-(γGlu)-CO—(CH2)18—CO2H)AQ-Aib-TFIEYLIEGGPSSGAPPPS-NH2 (YXEGTXTSDYSIXLDKKAQXTFIEYLIEGGPSSGAPPPS; Aib, αMeF, αMeL; acylated lysine C20 diacid; amide; (2)..(2) Xaa at position 2 is Aib; (6)..(6) Xaa at position 6 is alpha-methyl-Phe; (13)..(13) Xaa at position 13 is alpha-methyl-Leu; MOD_RES (17)..(17) Lys at position 17 is chemically modified by conjugation of the epsilon-amino group of the Lys side chain with (2-[2-(2-amino-ethoxy)-ethoxy]-acetyl)2-(gamma-Glu)-CO-(CH2)18- CO2H; (20)..(20) Xaa at position 20 is Aib; MOD_RES (39)..(39) Ser at po) [Peptide 139] | 3.19
Y-Aib-EGT-αMeF-TSDYSI-αMeL-LDKK((2-[2-(2-Amino-ethoxy)-ethoxy]-acetyl)2-(γGlu)-CO—(CH2)18—CO2H)AQH-Aib-FIEYLIEGGPSSGAPPPS-NH2 (YXEGTXTSDYSIXLDKKAQHXFIEYLIEGGPSSGAPPPS; Aib, αMeF, αMeL; acylated lysine C20 diacid; amide; (2)..(2) Xaa at position 2 is Aib; (6)..(6) Xaa at position 6 is alpha-methyl-Phe; (13)..(13) Xaa at position 13 is alpha-methyl-Leu; MOD_RES (17)..(17) Lys at position 17 is chemically modified by conjugation of the epsilon-amino group of the Lys side chain with (2-[2-(2-amino-ethoxy)-ethoxy]-acetyl)2-(gamma-Glu)-CO-(CH2)18- CO2H; (21)..(21) Xaa at position 21 is Aib; MOD_RES (39)..(39) Ser at po) [Peptide 144] | 4.23
Y-Aib-EGT-αMeF-TSDYSI-αMeL-LDSK((2-[2-(2-Amino-ethoxy)-ethoxy]-acetyl)2-(γGlu)-CO—(CH2)18—CO2H)AQ-Aib-AFIEYLIEGGPSSG-NH2 [Peptide 99] | 3.61
Y-Aib-EGT-αMeF-TSDYSILLDKIAQ-Aib-AFIEYLIK((2-[2-(2-Amino-ethoxy)-ethoxy]-acetyl)2-(γGlu)-CO—(CH2)18—CO2H)GG-NH2 (YXEGTXTSDYSILLDKIAQXAFIEYLIKGG; Aib, αMeF; K lipidated C20 diacid-γGlu-AEEA2; C-terminal amide; (2)..(2) Xaa at position 2 is Aib; (6)..(6) Xaa at position 6 is alpha-methyl-Phe; (20)..(20) Xaa at position 20 is Aib; MOD_RES (28)..(28) Lys at position 28 is chemically modified by conjugation of the epsilon-amino group of the Lys side chain with (2-[2-(2-amino-ethoxy)-ethoxy]-acetyl)2-(gamma-Glu)-CO-(CH2)18- CO2H; MOD_RES (30)..(30) Gly at position 30 is amidated) [Peptide 95] | 2.52
Y-Aib-EGT-αMeF-TSDYSILLDKK((2-[2-(2-Amino-ethoxy)-ethoxy]-acetyl)2-(γGlu)-CO—(CH2)18—CO2H)AQ-Aib-AFIEYLIEGGPSSG-NH2 [Peptide 98] | 6.33
